Legend:
[1] = target: α2βγ heterotetramer of wild-type HsIDH3 (human) (UniProt P50213); experiment: SEC-MALS; low concentration (2 mg/ml); Superdex 200 10/300 GL, 24 °C, 10 mM HEPES pH 7.4, 200 mM NaCl, 5 mM β-ME
[2] = target: α2βγ heterotetramer of wild-type HsIDH3 (human) (UniProt P50213); experiment: SEC-MALS; high concentration (12 mg/ml); Superdex 200 10/300 GL, 24 °C, 10 mM HEPES pH 7.4, 200 mM NaCl, 5 mM β-ME

“α2βγ heterotetramer of wild-type HsIDH3 (from UniProt P50213 28-366; O43837 35-385; P51553 40-393) (complex)” gave a stoichiometry N (heterotetramers in the heterooctamer) [1] of 2 and a stoichiometry N (heterotetramers in the heterooctamer) [2] of 2.

Source: publication PMC7752914
